Data as given in article PMC11327110 (2024).

Columns and labels:
[1] = biological target: T1, proteasome subunit α7 (PSMA3) (Homo sapiens (Human), UniProt P25788); experiment: cryo-EM structure of co-purified complex; contact seen only within the assembled multi-subunit intermediate (PAC2 C-terminus in α6-α7 pocket); pair not tested in isolation
T1 chain: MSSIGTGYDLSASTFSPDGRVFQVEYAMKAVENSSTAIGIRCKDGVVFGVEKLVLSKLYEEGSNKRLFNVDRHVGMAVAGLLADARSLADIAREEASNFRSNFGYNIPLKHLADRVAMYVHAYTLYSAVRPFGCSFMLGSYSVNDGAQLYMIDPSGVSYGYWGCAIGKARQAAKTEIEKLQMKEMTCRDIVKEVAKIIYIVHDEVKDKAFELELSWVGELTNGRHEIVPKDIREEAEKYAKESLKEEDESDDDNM

[2] = biological target: T2, proteasome subunit α2 (PSMA2) (Homo sapiens (Human), UniProt P25787); experiment: cryo-EM structure of co-purified complex; contact seen only within the assembled multi-subunit intermediate (complete α-ring, POMP, β2); pair not tested in isolation
T2 chain: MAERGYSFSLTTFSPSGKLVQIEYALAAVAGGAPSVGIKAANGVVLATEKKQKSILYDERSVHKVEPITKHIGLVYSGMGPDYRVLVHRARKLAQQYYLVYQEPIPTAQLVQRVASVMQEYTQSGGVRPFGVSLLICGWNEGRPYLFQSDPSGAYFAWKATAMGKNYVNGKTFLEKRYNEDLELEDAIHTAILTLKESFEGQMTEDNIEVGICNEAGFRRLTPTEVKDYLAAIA

[3] = biological target: T3, proteasome subunit α4 (PSMA7) (Homo sapiens (Human), UniProt O14818); experiment: as above
T3 chain: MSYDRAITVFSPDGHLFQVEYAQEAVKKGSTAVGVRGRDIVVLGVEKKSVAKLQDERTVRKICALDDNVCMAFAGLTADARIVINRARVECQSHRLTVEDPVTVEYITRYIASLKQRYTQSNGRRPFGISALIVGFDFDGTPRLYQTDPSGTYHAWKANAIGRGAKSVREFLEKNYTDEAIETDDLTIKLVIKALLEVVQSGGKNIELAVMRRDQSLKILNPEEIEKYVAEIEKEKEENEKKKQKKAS

[4] = biological target: proteasome subunit α6 (PSMA1) (Homo sapiens (Human), UniProt P25786); experiment: cryo-EM structure of co-purified complex; contact seen only within the assembled multi-subunit intermediate (HbYX motifs in α5-α6 and α6-α7 pockets); pair not tested in isolation
[5] = biological target: T4, proteasome subunit α5 (PSMA5) (Homo sapiens (Human), UniProt P28066); experiment: cryo-EM structure of co-purified complex; contact seen within the assembled multi-subunit intermediate (complete α-ring, POMP, β2); isolated pair only cited from earlier work
T4 chain: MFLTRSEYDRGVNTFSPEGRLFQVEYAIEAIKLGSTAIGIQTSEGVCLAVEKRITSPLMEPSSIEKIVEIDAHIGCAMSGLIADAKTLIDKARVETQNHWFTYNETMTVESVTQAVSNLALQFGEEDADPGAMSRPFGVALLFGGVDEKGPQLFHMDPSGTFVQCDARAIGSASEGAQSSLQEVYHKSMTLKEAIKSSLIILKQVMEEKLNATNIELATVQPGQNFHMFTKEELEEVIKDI

[6] = biological target: T5, proteasome subunit α3 (PSMA4) (Homo sapiens (Human), UniProt P25789); experiment: cryo-EM structure of co-purified complex; contact seen within the assembled multi-subunit intermediate; isolated pair only cited from earlier yeast two-hybrid
T5 chain: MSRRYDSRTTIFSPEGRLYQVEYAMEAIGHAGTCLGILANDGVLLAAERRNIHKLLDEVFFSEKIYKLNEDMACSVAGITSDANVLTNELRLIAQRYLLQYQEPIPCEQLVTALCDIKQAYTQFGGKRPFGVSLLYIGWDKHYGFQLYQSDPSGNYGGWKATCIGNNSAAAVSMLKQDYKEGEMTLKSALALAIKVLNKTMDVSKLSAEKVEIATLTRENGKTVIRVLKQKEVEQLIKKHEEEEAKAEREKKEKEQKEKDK

[7] = biological target: T5, proteasome subunit α3 (PSMA4); experiment: cryo-EM structure of co-purified complex; contact seen only within structure 1 (complete α-ring, PAC1/PAC2, POMP, β2); pair not tested in isolation

proteasome subunit α6 (PSMA1), sequence (P25786 whole entry): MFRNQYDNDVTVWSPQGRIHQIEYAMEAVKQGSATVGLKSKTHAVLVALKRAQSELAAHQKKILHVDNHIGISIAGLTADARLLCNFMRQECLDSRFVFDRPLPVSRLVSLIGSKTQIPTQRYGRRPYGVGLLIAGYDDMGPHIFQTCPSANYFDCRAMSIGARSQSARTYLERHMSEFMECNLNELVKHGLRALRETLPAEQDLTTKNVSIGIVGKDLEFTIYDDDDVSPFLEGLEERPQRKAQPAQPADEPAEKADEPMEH

B1: PAC1–PAC2 heterodimer (protein)
chain 1: MAATFFGEVVKAPCRAGTEDEEEEEEGRRETPEDREVRLQLARKREVRLLRRQTKTSLEVSLLEKYPCSKFIIAIGNNAVAFLSSFVMNSGVWEEVGCAKLWNEWCRTTDTTHLSSTEAFCVFYHLKSNPSVFLCQCSCYVAEDQQYQWLEKVFGSCPRKNMQITILTCRHVTDYKTSESTGSLPSPFLRALKTQNFKDSACCPLLEQPNIVHDLPAAVLSYCQVWKIPAILYLCYTDVMKLDLITVEAFKPILSTRSLKGLVKNIPQSTEILKKLMTTNEIQSNIYT
chain 2: MFVPCGESAPDLAGFTLLMPAVSVGNVGQLAMDLIISTLNMSKIGYFYTDCLVPMVGNNPYATTEGNSTELSINAEVYSLPSRKLVALQLRSIFIKYKSKPFCEKLLSWVKSSGCARVIVLSSSHSYQRNDLQLRSTPFRYLLTPSMQKSVQNKIKSLNWEEMEKSRCIPEIDDSEFCIRIPGGGITKTLYDESCSKEIQMAVLLKFVSEGDNIPDALGLVEYLNEWLQILKPLSDDPTVSASRWKIPSSWRLLFGSGLPPALF
binding result [1]: binds
binding result [2]: binds
binding result [3]: binds
binding result [4]: binds
binding result [5]: binds

B2: proteasome maturation protein (POMP) (protein)
chain: MNARGLGSELKDSIPVTELSASGPFESHDLLRKGFSCVKNELLPSHPLELSEKNFQLNQDKMNFSTLRNIQGLFAPLKLQMEFKAVQQVQRLPFLSSSNLSLDVLRGNDETIGFEDILNDPSQSEVMGEPHLMVEYKLGLL
binding result [6]: binds

B3: PAC3–PAC4 heterodimer (protein)
chain 1: MEDTPLVISKQKTEVVCGVPTQVVCTAFSSHILVVVTQFGKMGTLVSLEPSSVASDVSKPVLTTKVLLGQDEPLIHVFAKNLVAFVSQEAGNRAVLLAVAVKDKSMEGLKALREVIRVCQVW
chain 2: MEGLVVAAGGDVSLHNFSARLWEQLVHFHVMRLTDSLFLWVGATPHLRNLAVAMCSRYDSIPVSTSLLGDTSDTTSTGLAQRLARKTNKQVFVSYNLQNTDSNFALLVENRIKEEMEAFPEKF
binding result [7]: binds
